B1: NRCoV2-S2G4 VHH (VHH)
VHH: QVQLVQSGGGLVQAGGSLTLSCAPSGSTFSGYATNWYRQAPGKQRELVATISSDGDKNYADSVKGRFTISRDNAKNTVYLQMNSLKPEDTAVYYCNKHWWTGDWWGQGTQVTVSS
B2: NRCoV2-S2F3 VHH (VHH)
VHH: EVQLVQSGGGLVQAGGSLRLSCATSVRILSVPAMGWYRQAPGKEREMVAVITSGGSTNYADSVKGRFTISRDNAKNTVYLQMNSLKLEDTAVYQCNLRDILSQPFWGQGTQVTVSS
B3: NRCoV2-S2G3 VHH (VHH)
VHH: QVQLVQSGGGSVQAGGSLRLSCAASGSTFGIFLMGWRRQAPGKQRELVAHITSGGATNYADSVKGRFTISRDNAKNTVYLQMNSLEPEDTAVYYCYTTKRDDASVYWGQGTQVTVSS
B4: NRCoV2-SR04 VHH (VHH)
VHH: QVQLVESGGGLVQAGGSLRLSCAASGRTFSSHTVGWYRQAPGKQRDLVAAISMGGNTNYADYADSVKGRFTISRDNAKNTLYLQMNSLKPEDTAVYYCNTAALVGNRLLPMATITWGQGTQVTVSS
B5: NRCoV2-SR02 VHH (VHH)
VHH: EVQLVDSGGGLVQAGGSLRLSCTASEFTLNYYSIGWFRQSPGKEREGVSCIRYSGGGIDYADSVKGRFTISRDNAKNTVYLTMNSLKPEDTAVYYCAADRLYSRACPTAGGRNYWGQGTQVTVSS
B6: NRCoV2-SR01 VHH (VHH)
VHH: EVQLVQSGGGSVQAGGSLRLSCVASGFTFDNYAIGWFRQAPGKEREGVSCISGNGGVTIYADSVKGRFTISRDNAKNLVYLQMNSLKPEDTAVYYCAATGIRSTWSVYGCSRLAGPYDYWGQGTQVTVSS
B7: NRCoV2-20 VHH (VHH)
VHH: EVQLQQSGGGLVQPGGSLRLSCAASGRTFSNYVVGWFRQAPQAPGKDHEFVAVISGSDTETYYADSVKGRFTISRDNAKNTVYLQMNSLKPEDTAVYYCAADRGMSYYYTRATEYYYWGQGTQVTVSS
B8: NRCoV2-MRed04 VHH-Fc (Fc fusion)
chain: EVQLVESGGGLVQPGRSLRLSCAASGNSFSISTMGWFRQAPGKERELVASIWSDTTTSYADSVKGRFTISTDNTRTKVYLQMSSLNPEDTAVYYCAADRGFVVRGQYDYWGQGTQVTVSS
notes: bivalent VHH-Fc
B9: NRCoV2-15 VHH-Fc (Fc fusion)
chain: EVQLVSSGGGLVEAGGSLRLSCIASGSTSGRNTMGWFRQAPGKQREWVAIVSTSGATNYAGSVKGRFTLSRDNAKNAVYLQMNNLKPEDTAVYYCYAAYGGGGDYWGQGTQVTVSS
notes: bivalent VHH-Fc
B10: NRCoV2-SR13 VHH-Fc (Fc fusion)
chain: EVQLVESGGGLVTTGGSLRLSCATSGSRFGSKHMAWYRQAPGKQRDLVAAISSGGSTHYGSSVKGRFTISRDNAKSTVYLQMNSLNPEDTAVFYCNMGGWDYRSNTYIPGSRSDYWGQGTQVTVSS
notes: bivalent VHH-Fc
B11: NRCoV2-18 VHH-Fc (Fc fusion)
chain: EVQLVESGGGLVQAGGSLRLSCVASGITISGYNMAWWRQTRGKQTERVAFINSGGSTTYSDSVKGRFTISRDNGKNTAYLQMNSLNAEDTADYFCSLHTSHDYWGQGTQVTVSS
notes: bivalent VHH-Fc
B12: NRCoV2-05 VHH-Fc (Fc fusion)
chain: EVKLVQSGGGLVQPGGSLRLSCAASGFIFSNYAMNWVRQAPGKGLEWVSGINSGGGDTRYADSVKGRFTVSRDNAKNTLYLQMNSLKPEDTGVYYCSKGPVSSYYGSGYDYRGQGTQVTVSS
notes: bivalent VHH-Fc
B13: NRCoV2-14 VHH-Fc (Fc fusion)
chain: EVQLVSSGGGLVQAGGSLRLSCEASGTTFSHYAVGWYRQAPGKQREWVASISVFGSTTYGGSVAGRFTISRDNDKNTVDLQMNSLKPEDTAVYYCHAVNADIGGDYWGQGTQVTVSS
notes: bivalent VHH-Fc
B14: NRCoV2-17 VHH-Fc (Fc fusion)
chain: EVQLQQSGGGLVQTGGSLRLSCAAAGSPFSQLAMSWYRQISGKERAWVASISPTGNRSYSKIAKGRFTISRDNAKNTVTLQMTSLKPEDTAAYICQAANVNGGDYWGQGTQVTVSS
notes: bivalent VHH-Fc
B15: NRCoV2-10 VHH-Fc (Fc fusion)
chain: QLQLQESGGGLVQPGGSLTLSCAASGNTFSRSNMHWYRQAPGAQREWVAAISSRGISTYAYSAKGRFTISRDNAKNTVSLQMNSLKPEDTAVYYCYAADDLGDYWGQGTQVTVSS
notes: bivalent VHH-Fc
B16: NRCoV2-12 VHH-Fc (Fc fusion)
chain: EVQLQQSGGGLVQAGGSLRLSCAASGRTFRNYVMGWFRQAPQAPGKDHEFVAAISWGGTEIYYADSVKGRFTISRDNAKNTVYLQMNSLKPEDTAVYYCAADRGLSYYYTRTTEYNYWGQGTQVTVSS
notes: bivalent VHH-Fc
B17: NRCoV2-MRed05 VHH-Fc (Fc fusion)
chain: EVQLVESGGGLVQPGGSLRLSCAASGFTLDYYAIGWFRQAPGKEREGVSCISSSDGSTLYADSVKGRFTISRDNAKNTVYLQMNSLKPEDTAVYYCATGPQAYYSGSYYFQCPQAGMDYWGKGTQVTVSS
notes: bivalent VHH-Fc
B18: NRCoV2-20 VHH-Fc (Fc fusion)
chain: B7 VHH
notes: bivalent VHH-Fc
B19: NRCoV2-05 VHH-Fc (Fc fusion)
chain: B12 chain
notes: bivalent VHH-Fc
B20: NRCoV2-14 VHH-Fc (Fc fusion)
chain: B13 chain
notes: bivalent VHH-Fc
B21: NRCoV2-02 VHH-Fc (Fc fusion)
chain: EVQLVESGGGLVQAGGSLRLSCAASGFTFSNYAMNWVRQAPGKGLEWVSGISGRGDDTRYADSVKGRFTISRDNAKNTLFLQMRSLRPEDTGVYRCTKGPDLYYFGSGYSDRGQGTQVTVSS
notes: bivalent VHH-Fc
B22: NRCoV2-1d VHH-Fc (Fc fusion)
chain: EVQLVESGGGSVQPGGSLRLSCAASGSTLDYYAIGWFRQAPGKEREWVSSVSSSDGNTLYADSVKGRFTISRDNAKNTVYLQMNSLKAEDTAVYVCAADYSMRPFAVGRWHRDYEYWGQGTQVTVSS
notes: bivalent VHH-Fc

Each binder was assayed against T1, Human SARS-CoV-2_Wuhan S (SmT1) (SARS-CoV-2 (Wuhan), UniProt P0DTC2 14-1208) (assay: tandem SPR, immobilized S, orientation 1: VHH alone).

Binder | End 1st inj (RU)
B1 | 21.3
B2 | 50
B3 | 59
B4 | 10.9
B5 | 10.3
B6 | 39.4
B7 | 27.1

These binders were tested against Human SARS-CoV-2_Wuhan S (SmT1) (SARS-CoV-2 (Wuhan), UniProt P0DTC2 14-1208) (assay: flow cytometry SVNA, VHH-Fc vs biotin-S binding to Vero E6 ACE2).

Binder | IC50 [nM] | IC99 [nM] | Imax % [%]
B8 | 4.6 | 262 | 73
B9 | 8.1 | 71.5 | 95
B10 | 23.8 | 1970 | 82
B11 | 12 | 680 | 90
B12 | 6.7 | 37 | 95
B13 | 9.9 | 160 | 83
B14 | 8.6 | 101 | 88
B15 | 7.7 | 77.3 | 91
B16 | 7.3 | 840 | 90
B17 | 6.1 | 36.3 | 95
B18 | 8.7 | 70.3 | 66

Each binder was assayed against SARS-CoV-2 spike protein S on live virus, Wuhan (strain SARS-CoV-2/Canada/VIDO-01/2020) (SARS-CoV-2 (Wuhan), UniProt P0DTC2 14-1273) (assay: cell-based or functional assay).

Binder | LVNA IC50 [nM]
B8 | 9.61
B9 | 0.73
B10 | ~100
B11 | 6.4
B12 | 0.0008
B13 | 3.1
B14 | 2.82
B15 | 1.28
B16 | 2.82
B17 | 0.17
B18 | 11.2

The binders below were run against T1, Human SARS-CoV-2_Wuhan S (SmT1) (assay: flow cytometry SVNA: VHH-Fc inhibits S binding to ACE2 on Vero E6 cells).

Binder | IC50 [nM]
B19 | 4.9
B20 | 7.5
B21 | 4.7
B22 | 4.7
